Data set [1] deals with dRfxCas13d (Ruminococcus flavefaciens). As to the kind of experiment: BLI. The conditions noted are these: 6 mM Mg2+; BLI: 40 mM Tris-HCl pH 7.5, 150 mM NaCl, 6 mM MgCl2, 1 mM DTT, 0.1% Tween-20, 0.2 mg/ml BSA; RNP 25-100 nM (dRfx 25 nM only); temperature not stated.
Data set [2] addresses T1, dEsCas13d (Eubacterium siraeum, UniProt B0MS50 1-954, R295A;H300A;R849A;H854A).
T1 sequence: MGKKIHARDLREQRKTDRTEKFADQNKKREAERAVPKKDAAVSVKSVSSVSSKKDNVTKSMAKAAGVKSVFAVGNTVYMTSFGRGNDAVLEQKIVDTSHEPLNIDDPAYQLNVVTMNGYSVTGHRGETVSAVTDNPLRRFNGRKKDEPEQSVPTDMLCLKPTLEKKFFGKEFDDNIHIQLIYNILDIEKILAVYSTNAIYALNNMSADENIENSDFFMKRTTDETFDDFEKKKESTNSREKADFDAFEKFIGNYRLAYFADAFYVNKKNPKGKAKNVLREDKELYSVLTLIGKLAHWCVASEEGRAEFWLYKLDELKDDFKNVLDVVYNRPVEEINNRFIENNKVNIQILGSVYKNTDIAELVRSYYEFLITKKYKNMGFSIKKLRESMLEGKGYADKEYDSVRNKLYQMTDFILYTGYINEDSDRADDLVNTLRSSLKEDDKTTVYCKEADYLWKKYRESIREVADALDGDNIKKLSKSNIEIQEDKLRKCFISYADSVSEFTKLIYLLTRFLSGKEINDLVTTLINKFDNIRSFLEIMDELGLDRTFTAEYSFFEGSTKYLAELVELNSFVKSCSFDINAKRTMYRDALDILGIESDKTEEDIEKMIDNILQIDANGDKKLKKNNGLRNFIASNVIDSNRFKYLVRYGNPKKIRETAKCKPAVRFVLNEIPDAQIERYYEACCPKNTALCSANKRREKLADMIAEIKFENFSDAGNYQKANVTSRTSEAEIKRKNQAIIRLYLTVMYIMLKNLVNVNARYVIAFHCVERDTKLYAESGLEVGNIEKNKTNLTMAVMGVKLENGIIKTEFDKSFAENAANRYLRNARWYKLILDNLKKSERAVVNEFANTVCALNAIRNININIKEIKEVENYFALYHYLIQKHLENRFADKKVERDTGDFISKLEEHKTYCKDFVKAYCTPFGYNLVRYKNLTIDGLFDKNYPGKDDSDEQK
Kind of data set: BLI; 6 mM Mg2+; BLI: 40 mM Tris-HCl pH 7.5, 150 mM NaCl, 6 mM MgCl2, 1 mM DTT, 0.1% Tween-20, 0.2 mg/ml BSA; RNP 25-100 nM (dRfx 25 nM only); temperature not stated. The note with it: protein: recombinant, tags: 6xHis-TwinStrep-SUMO, cleaved, 22 nt crRNA-target match.

What is called Kd is the equilibrium constant for the complex coming apart. In data set [1], “AACCCCUACCAACUGGUCGGGGUUUGAAACUGAGCGGAUAACCUCUCUAUGG / CCACAUCUACGAAUUCGUACCAUAGAGAGGUUAUCCGAUCACCGAGAUCGGAAGAGCACA [Rfx crRNA_Target 1 / C4A]” had a Kd of 0.132 nM.

B1: crRNA_Target 1 / MT (5'-GUA PFS) (ssRNA)
RNA 1: CACCCGUGCAAAAAUGCAGGGGUCUAAAACUGAGCGGAUAACCUCUCUAUGG
RNA 2: CCACAUCUACGAAUUCGUACCAUAGAGAGGUUAUCCGCUCACCGAGAUCGGAAGAGCACA
In the case of B1, in data set [2] (label: 3' biotin on target), the Kd came out at 3.1 ± 0.018 nM.

B2: crRNA_Target 1 / U9-flanked target (ssRNA)
RNA 1: B1 RNA 1
RNA 2: UUUUUUUUUCCAUAGAGAGGUUAUCCGCUCAUUUUUUUUU
As for B2, the Kd in data set [2] came to 1.6 ± 0.024 nM.

These data come from publication PMC10786891, “Massively parallel profiling of RNA-targeting CRISPR-Cas13d”.
